target: protease TCES (hyperthermostable protease derived from Thermococcus celer), enzyme preparation (Thermococcus celer); assay: cell-based or functional assay
Sequence (chain, as listed by the source limits assumed): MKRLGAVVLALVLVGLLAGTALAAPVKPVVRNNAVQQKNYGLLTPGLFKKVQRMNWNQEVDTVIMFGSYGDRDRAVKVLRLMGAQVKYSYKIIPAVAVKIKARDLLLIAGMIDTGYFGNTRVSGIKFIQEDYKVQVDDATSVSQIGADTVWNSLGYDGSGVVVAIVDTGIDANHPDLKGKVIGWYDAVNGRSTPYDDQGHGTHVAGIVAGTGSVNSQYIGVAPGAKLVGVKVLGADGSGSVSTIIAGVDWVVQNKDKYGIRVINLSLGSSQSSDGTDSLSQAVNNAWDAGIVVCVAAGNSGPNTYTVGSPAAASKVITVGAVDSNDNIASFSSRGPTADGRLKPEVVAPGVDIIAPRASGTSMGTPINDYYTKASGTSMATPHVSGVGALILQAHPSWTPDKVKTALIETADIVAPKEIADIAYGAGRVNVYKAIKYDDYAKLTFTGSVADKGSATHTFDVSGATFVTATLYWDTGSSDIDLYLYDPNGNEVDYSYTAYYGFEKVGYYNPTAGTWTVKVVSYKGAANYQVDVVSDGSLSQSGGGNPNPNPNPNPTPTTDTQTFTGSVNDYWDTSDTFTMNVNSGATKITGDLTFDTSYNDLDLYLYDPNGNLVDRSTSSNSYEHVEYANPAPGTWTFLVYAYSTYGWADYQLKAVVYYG

Going from Antipain (peptide) to Chymostatin (peptide), the enzyme activity compared with control without reagent, after treatment at 37° C. for 30 minutes with 1 mM reagent falls from 19% to 0%.

Compared with Leupeptin (peptide), Pepstatin (peptide) is higher in enzyme activity compared with control without reagent, after treatment at 37° C. for 30 minutes with 1 mM reagent: 104% for the first, 105% for the second.
